Results as given in publication PMC10333379.

Target: human angiotensin-converting enzyme 2 (hACE2) with an Fc domain (human) (UniProt Q9BYF1)
Assay: BLI

UniProt Q9BYF1, sequence (Q9BYF1 18-740): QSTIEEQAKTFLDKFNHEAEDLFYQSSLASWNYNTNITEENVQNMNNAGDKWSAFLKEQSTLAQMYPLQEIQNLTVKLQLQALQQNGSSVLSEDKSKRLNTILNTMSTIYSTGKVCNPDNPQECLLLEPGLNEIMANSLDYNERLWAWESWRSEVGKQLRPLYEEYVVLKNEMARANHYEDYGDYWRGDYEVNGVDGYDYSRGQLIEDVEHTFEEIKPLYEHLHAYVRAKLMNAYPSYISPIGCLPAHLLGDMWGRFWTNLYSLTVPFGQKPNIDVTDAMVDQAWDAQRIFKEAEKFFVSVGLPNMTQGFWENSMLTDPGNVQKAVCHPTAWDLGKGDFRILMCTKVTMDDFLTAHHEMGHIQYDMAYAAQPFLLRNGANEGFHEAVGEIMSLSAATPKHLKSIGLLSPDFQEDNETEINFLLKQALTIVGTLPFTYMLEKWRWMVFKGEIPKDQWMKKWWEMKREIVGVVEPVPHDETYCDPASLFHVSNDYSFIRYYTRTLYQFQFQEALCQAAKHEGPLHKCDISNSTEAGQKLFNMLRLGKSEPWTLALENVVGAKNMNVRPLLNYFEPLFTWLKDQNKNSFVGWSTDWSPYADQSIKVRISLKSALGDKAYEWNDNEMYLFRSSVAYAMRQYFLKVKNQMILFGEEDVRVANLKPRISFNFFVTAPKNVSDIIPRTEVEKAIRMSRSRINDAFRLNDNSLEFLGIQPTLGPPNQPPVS

Substance “Bat SARS-like coronavirus CX1 receptor-binding domain (RBD) of spike protein (domain or fragment)” has a Kd of 10.7 nM.
